Experimental data reported in patent US6143507A, “High throughput compatible assay for receptor-TRAF interactions” (Boehringer Ingelheim Pharmaceuticals, Inc., priority 1998, dated 2000).
Residues, ends and D or L forms follow the SMILES beside them.

Experiments:
CD40c-TRAF2 interaction = target: T1, CD40c-TRAF2 interaction (Homo sapiens, UniProt Q12933); assay: Flashplate assay of CD40c-TRAF2 interaction (biotin-CD40c, TRAF2(NC)-CA21, 125I-CA21 Fab); assay type: binding; details: 0.44 μg/ml biotin-CD40c; for IC50: 5 μg/ml TRAF2(NC)-CA21, peptide preincubated with TRAF2(NC)-CA21, read-out: IC50 for inhibition of CD40c-TRAF2 interaction
T1 construct: 1 and 2, respectively; made in house; host or cells: TRAF2(NC)-CA21: Spodoptera frugiperda Sf21 cells (baculovirus); CD40c: Escherichia coli BL21 (DE3)
T1 sequence (Q12933 with tags, fused parts or gaps): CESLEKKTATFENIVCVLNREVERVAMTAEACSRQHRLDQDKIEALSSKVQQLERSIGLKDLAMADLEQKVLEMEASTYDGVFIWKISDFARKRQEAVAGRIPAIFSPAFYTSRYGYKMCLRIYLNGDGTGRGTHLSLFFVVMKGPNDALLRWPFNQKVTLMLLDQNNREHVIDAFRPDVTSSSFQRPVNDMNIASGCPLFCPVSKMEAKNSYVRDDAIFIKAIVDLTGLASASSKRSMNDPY
Procedure: FIG. 2. Peptide antagonists of CD40c-TRAF2 interaction. Streptavidin flashplates were coated with 0.44 μg/ml biotin-CD40c. Stock solutions of peptides were prepared at 1 mg/ml in assay buffer and the pH verified. All peptides were assayed by preincubating with TRAF2(NC)-CA21 at a final peptide concentration of 0.5 mg/ml. Peptides were serially diluted 1.5-fold prior to addition of the TRAF2(NC)-CA21 (5 μg/ml final). Results are means of duplicate points except for the no inhibitor wells (none, closed circles) that are means i standard deviation of 11 replicates. A) Peptides AcPVQET-NH2 (closed squares), AcNTAAPVQET-NH2 (closed triangles), AcNTAAPVQETLH-NH2 (open triangles), CD30.B (AcDVMLSVEEEGKE-NH2, open circles); B) Peptides AcIQET-NH2 (closed squares), AcPIQET-NH2 (closed triangles), AcQEPQEINF-NH2 (open triangles), CD40c (open circles). The maximum signal in B) is less due to a difference in the decay of the ^125 I-Fab.
Significant signal was detectable as low as 0.054 μg/ml biotin-CD40c (FIG. 1). Standard conditions for the assay were selected to be 0.44 μg/ml CD40c and 5 μg/ml TRAF2(NC)-CA21. These conditions provided a signal/noise of eight to ten and a good dynamic range for the detection of inhibitors or enhancers. […] As noted by the manufacturer of the plates, low concentrations of detergents were strong inhibitors of the assay because they removed the streptavidin from the wells. […] The PVQET sequence in the CD40 cytoplasmic domain is essential for signaling through CD40 and is thought to be a core TRAF2 binding sequence. Devergne, O., et al (1996) Mol. Cell. Biol. 16, 7098-7108; Innui, W., et al (1990) Eur. J Immunol. 20, 1747-1753. Therefore several peptides around the PVQET sequence were tested for the ability to compete the CD40c-TRAF2 interaction (FIG. 2A). […] FIG. 2A.
Biotin-CD40c (0.5 μg/ml) was bound to streptavidin-coated 96-well scintillant-embedded plates (Flashplates, New England Nuclear, catalog #15112) overnight at 4° C. in D-PBS, 0.1 mM DTT, 0.01% BSA (100 μl/well). Plates were blocked for 2 hr at room temperature by the addition of Dulbecco's-PBS, 0.1 mM DTT, 1.0% BSA (100 μl/well). In a separate 96-well round bottom polypropylene plate peptide inhibitors were diluted in 40 mM HEPES, pH 7.5, 0.1 M NaCl, 1.0 mM MgCl2, 0.1 mM DTT, 0.01% BSA, and TRAF2(NC)-CA21 was added at a final concentration of 5 μg/ml. Plates were preincubated for 30 min at room temperature. After washing the biotin-CD40c-coated flashplate three times with D-PBS, 0.1 mM DTT, inhibitor-TRAF2(NC)-CA21 mixtures were transferred from the preincubation plate to the washed plate (100 μl/well). Alternatively, after washing the biotin-CD40c-coated flashplates, inhibitors were added directly without TRAF preincubation in a final volume of 50 μl 40 mM HEPES, pH 7.5, 0.1 M NaCl, 1.0 mM MgCl2, 0.1 mM DTT, 0.01% BSA, and 50 μl/well TRAF2(NC)-CA21 (10 μg/ml stock to make a final concentration of 5 μg/ml) was added. Flashplates were incubated for 1 hr at room temperature, washed three times with 40 MM HEPES, pH 7.5, 0.1 M NaCl, 1.0 mM MgCl2, 0.1 mM DTT, and 100 μl/well of [^125 I]CA21 Fab fragment at an adjusted specific activity of 0.08 μCi/well added in […] HEPES, pH […] 7.5, 0.1 M NaCl, 1.0 mM MgCl2, 0.1 mM DTT, 0.1% BSA. After a 1 hr incubation at room temperature plates were sealed and counted in a TopCount scintillation counter (Packard; one minute/well, 2 minute plate delay).

TRAF2(NC)-CA21 (human) = target: T2, TRAF2(NC)-CA21 (human); assay: flashplate competition assay, inhibition of TRAF2(NC)-CA21 binding to biotin-CD40c
T2 sequence: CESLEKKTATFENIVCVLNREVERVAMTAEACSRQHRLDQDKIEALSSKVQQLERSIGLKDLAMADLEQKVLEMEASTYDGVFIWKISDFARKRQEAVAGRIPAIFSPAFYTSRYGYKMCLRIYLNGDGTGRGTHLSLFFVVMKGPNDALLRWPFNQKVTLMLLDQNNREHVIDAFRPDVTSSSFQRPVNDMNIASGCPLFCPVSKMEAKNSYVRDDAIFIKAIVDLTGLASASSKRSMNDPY

[1] = tested on: GST-CD40-TRAF interaction; details: cited from earlier work

Row | Molecule | IC50 (CD40c-TRAF2 interaction) | IC50 (TRAF2(NC)-CA21 (human)) | other results
1 | Ac-PIQET-NH2 [PIQET, AcPIQET-NH2] | ~70 µM |  | 
2 | CD40c (nonbiotinylated CD40c polypeptide) (from UniProt P25942) (receptor) |  | 50 µM | 
3 | CC[C@H](C)[C@H](NC(C)=O)C(=O)N[C@@H](CCC(N)=O)C(=O)N[C@@H](CCC(=O)O)C(=O)N[C@H](C(N)=O)[C@@H](C)O [IQET, AcIQET-NH2] (Ac-IQET-NH2) | ~140 µM |  | 
4 | Ac-PVQET-NH2 [PVQET, AcPVQET-NH2] | ~90 µM |  | ability to inhibit (compete) CD40c-TRAF2 interaction, in words (CD40c-TRAF2 interaction; 5 μg/ml TRAF2(NC)-CA21, peptides up to 0.5 mg/ml): most potent
5 | Ac-IQET-NH2 [AcIQET-NH2] |  | 140 µM | fold decrease of inhibitory activity against PIQET (TRAF2(NC)-CA21 (human)): 2 fold
6 | Ac-PVQET-NH2 [AcPVQET-NH2] |  | 90 µM | 
7 | Ac-PIQET-NH2 [AcPIQET-NH2] |  | 70 µM | 
8 | CD40c: 62 amino acid human CD40 cytoplasmic domain (amino acids 216-277) expressed in E. coli (protein, also: biotinylated via D-biotinoyl-aminocaproic acid NHS ester, one or two biotin per molecule, sites not given here, 62 amino acid human CD40 cytoplasmic domain (amino acids 216-277) expressed in E. coli) KKVAKKPTNKAPHPKQEPQEINFPDDLPGSNTAAPVQETLHGCQPVTQEDGKESRISVQERQ | ~50 µM |  | ability to compete for GST-CD40-TRAF interaction [1]: weak ability to compete
